Tests used:
ProXp-ala WT [1] = molecular target: T1, ProXp-ala WT (Caulobacter crescentus, UniProt Q9ABV9 1-168); test: EMSA; apparent, Hill fit; EMSA: 81 nM duplex annealed in 50 mM sodium phosphate pH 7.5, 150 mM NaCl, 0-114 μM protein, 1 h room temp, 16% native gel in TBE; NMR: same phosphate buffer, 1; conditions: protein: recombinant, tags: N-terminal His6 removed by thrombin, leaves Gly-Ser-His, label: 3' 6FAM on strand 1
T1 sequence: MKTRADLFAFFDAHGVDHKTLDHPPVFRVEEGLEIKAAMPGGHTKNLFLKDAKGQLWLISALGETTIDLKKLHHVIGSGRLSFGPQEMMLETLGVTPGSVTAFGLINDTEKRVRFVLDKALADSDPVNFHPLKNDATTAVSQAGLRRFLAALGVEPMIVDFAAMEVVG

ProXp-ala WT [2] = molecular target: T1, ProXp-ala WT; test: NMR; 100 μM each; EMSA: 81 nM duplex annealed in 50 mM sodium phosphate pH 7.5, 150 mM NaCl, 0-114 μM protein, 1 h room temp, 16% native gel in TBE; NMR: same phosphate buffer, 1; conditions: protein: recombinant; tags: N-terminal His6 removed by thrombin; leaves Gly-Ser-His; hairpin; 7 bp stem, 3' ACCA single-stranded
ProXp-ala WT [3] = molecular target: T1, ProXp-ala WT; test: NMR; 100 μM each; indistinguishable from microhelixPro; EMSA: 81 nM duplex annealed in 50 mM sodium phosphate pH 7.5, 150 mM NaCl, 0-114 μM protein, 1 h room temp, 16% native gel in TBE; NMR: same phosphate buffer, 1; conditions: protein: recombinant; tags: N-terminal His6 removed by thrombin; leaves Gly-Ser-His; hairpin; 12 bp stem, 3' ACCA single-stranded

B1: duplexPro A76U (dsRNA)
RNA 1: CGGCGAGGGAGGUU
RNA 2: AUCCUCUCUCGCCGACCU
Binder B1 has a Kd (ProXp-ala WT [1]; 3' overhang 4 nt on strand 2) of 106 ± 16 µM.

B2: duplexPro ΔA76 (dsRNA)
RNA 1: CGGCGAGGGAGGUU
RNA 2: AUCCUCUCUCGCCGACC
Work on B2 yielded a Kd (ProXp-ala WT [1]; 3' overhang 3 nt on strand 2) of 75 ± 12 µM.

B3: duplexPro 3'pΔA76 (dsRNA)
RNA 1: CGGCGAGGGAGGUU
RNA 2: AUCCUCUCUCGCCGACC
modifications: 3' phosphate on terminal C of strand 2
B3 showed a Kd (ProXp-ala WT [1]; 3' overhang 3 nt on strand 2) of 63 ± 11 µM.

CGGCGAGUUCGCUCGCCGACCA (structured_RNA) [microhelixPro]: binds (ProXp-ala WT [2]).

B4: duplexPro A76G (dsRNA)
RNA 1: CGGCGAGGGAGGUU
RNA 2: AUCCUCUCUCGCCGACCG
Binder B4 has a Kd (ProXp-ala WT [1]; 3' overhang 4 nt on strand 2) of 66 ± 11 µM.

B5: duplexPro A76 (WT) (dsRNA)
RNA 1: CGGCGAGGGAGGUU
RNA 2: AUCCUCUCUCGCCGACCA
With B5 the Kd (ProXp-ala WT [1]; 3' overhang 4 nt (ACCA) on strand 2) was 33 ± 11 µM.

CGGCGAGGGAGGUUCGAAUCCUCUCUCGCCGACCA (structured_RNA) [minihelixPro]: binds (ProXp-ala WT [3]).

B6: duplexPro dA76 (dsRNA)
RNA 1: CGGCGAGGGAGGUU
RNA 2: AUCCUCUCUCGCCGACCA
modifications: 2'-deoxy-A at 3' terminus of strand 2
In the case of B6, the Kd (ProXp-ala WT [1]; 3' overhang 4 nt on strand 2) is reported as 34 ± 5 µM.

B7: duplexPro A76C (dsRNA)
RNA 1: CGGCGAGGGAGGUU
RNA 2: AUCCUCUCUCGCCGACCC
B7 gave a Kd (ProXp-ala WT [1]; 3' overhang 4 nt on strand 2) of 87 ± 4 µM.
